# Source: PMC3851519 (Developmental cell, 2013)
# B1: tyrosine-phosphorylated Dab1-EGFP (natural protein, UniProt P97318 1-588, looked up)
# chain: MSTETELQVAVKTSAKKDSRKKGQDRSEATLIKRFKGEGVRYKAKLIGIDEVSAARGDKLCQDSMMKLKGVVAGARSKGEHKQKIFLTISFGGIKIFDEKTGALQHHHAVHEISYIAKDITDHRAFGYVCGKEGNHRFVAIKTAQAAEPVILDLRDLFQLIYELKQREELEKKAQKDKQCEQAVYQTILEEDVEDPVYQYIVFEAGHEPIRDPETEENIYQVPTSQKKEGVYDVPKSQPNSQPLEDFESRFAAATPNRNLSMDFDELLEATKVSAVTQLELFGDMSTPPDITSPPTPATPGDAFLPSSSQTLPGSADVFGSMSFGTAAVPSGYVAMGAVLPSFWGQQPLVQQQIAMGAQPPVAQVIPGAQPIAWGQPGLFPATQQAWPTVAGQFPPAAFMPTQTVMPLAAAMFQGPLTPLATVPGTNDSARSSPQSDKPRQKMGKESFKDFQMVQPPPVPSRKPDQPSLTCTSEAFSSYFNKVGVAQDTDDCDDFDISQLNLTPVTSTTPSTNSPPTPAPRQSSPSKSSASHVSDPTADDIFEEGFESPSKSEEQEAPDGSQASSTSDPFGEPSGEPSGDNISPQDGS
# modifications: phosphotyrosine (sites not given; phosphorylated by co-transfected Fyn)
# Columns and labels:
# [1] = target: T1, T7-SOCS7 WT (UniProt Q8VHQ2 1-579); assay: pull-down
# T1 sequence (looked up): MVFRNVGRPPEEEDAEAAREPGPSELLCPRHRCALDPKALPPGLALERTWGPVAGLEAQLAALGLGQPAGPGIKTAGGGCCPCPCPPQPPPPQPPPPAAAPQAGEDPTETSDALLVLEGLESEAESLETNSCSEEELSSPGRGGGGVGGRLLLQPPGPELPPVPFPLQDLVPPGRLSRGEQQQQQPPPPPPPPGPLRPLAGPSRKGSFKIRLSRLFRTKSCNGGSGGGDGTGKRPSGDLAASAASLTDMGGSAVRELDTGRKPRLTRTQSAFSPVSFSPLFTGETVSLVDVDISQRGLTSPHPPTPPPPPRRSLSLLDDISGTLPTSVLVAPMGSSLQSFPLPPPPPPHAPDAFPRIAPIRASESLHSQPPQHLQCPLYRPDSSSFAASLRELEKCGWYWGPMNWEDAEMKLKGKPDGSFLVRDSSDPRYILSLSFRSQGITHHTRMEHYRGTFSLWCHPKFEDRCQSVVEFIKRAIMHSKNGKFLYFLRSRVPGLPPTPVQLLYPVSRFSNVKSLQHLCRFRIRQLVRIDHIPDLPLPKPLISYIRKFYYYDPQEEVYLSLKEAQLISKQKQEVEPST
# [2] = target: T2, T7-SOCS6 (UniProt Q9JLY0 1-533); assay: pull-down
# T2 sequence (looked up): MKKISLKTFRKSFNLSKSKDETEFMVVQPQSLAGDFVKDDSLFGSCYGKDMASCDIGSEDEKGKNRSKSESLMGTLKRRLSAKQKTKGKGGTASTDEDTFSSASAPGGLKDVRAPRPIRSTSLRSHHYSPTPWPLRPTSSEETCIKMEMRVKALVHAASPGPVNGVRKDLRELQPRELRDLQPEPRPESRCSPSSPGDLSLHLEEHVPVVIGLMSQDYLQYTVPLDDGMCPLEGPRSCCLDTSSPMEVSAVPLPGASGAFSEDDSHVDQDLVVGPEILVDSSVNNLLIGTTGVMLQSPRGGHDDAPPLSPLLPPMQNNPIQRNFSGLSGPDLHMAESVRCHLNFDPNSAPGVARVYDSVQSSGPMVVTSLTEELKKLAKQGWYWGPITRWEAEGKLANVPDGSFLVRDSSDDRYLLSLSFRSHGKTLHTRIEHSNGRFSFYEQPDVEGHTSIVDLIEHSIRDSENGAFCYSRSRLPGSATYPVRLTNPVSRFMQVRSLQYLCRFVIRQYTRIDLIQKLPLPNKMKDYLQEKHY
binder,measurement,setting,value
B1,"fold pY.Dab1 bound against SOCS4, 5 or CISH",[1],~10 fold
same,"fold pY.Dab1 bound against SOCS4, 5 or CISH",[2],~10 fold
